Measured values reported in US20130005646A1 (Novo Nordisk, published 2013).
Starred links: 1 amine or outer side, 2 acyl side, 3 side chain; linkers in the order of their positions; H or OH if unused. Positions of bridges follow the written chain, without caps; N, C: chain ends. Non-standard residues stand in square brackets, D forms with d. *: point of attachment. C20 diacid = O=C(O)CCCCCCCCCCCCCCCCCCC(=O)*; 19‑carboxyheptadecanoyl = not defined here; γGlu = O=C(O)[C@H](CCC(=O)[*:2])N[*:1]; AEEA = NCCOCCOCC(=O)O

T1: human amylin 3(a) receptor (human calcitonin receptor + RAMP-3) (human, UniProt P30988 25-474; O60896 24-148)
T1 sequence (looked up) 1: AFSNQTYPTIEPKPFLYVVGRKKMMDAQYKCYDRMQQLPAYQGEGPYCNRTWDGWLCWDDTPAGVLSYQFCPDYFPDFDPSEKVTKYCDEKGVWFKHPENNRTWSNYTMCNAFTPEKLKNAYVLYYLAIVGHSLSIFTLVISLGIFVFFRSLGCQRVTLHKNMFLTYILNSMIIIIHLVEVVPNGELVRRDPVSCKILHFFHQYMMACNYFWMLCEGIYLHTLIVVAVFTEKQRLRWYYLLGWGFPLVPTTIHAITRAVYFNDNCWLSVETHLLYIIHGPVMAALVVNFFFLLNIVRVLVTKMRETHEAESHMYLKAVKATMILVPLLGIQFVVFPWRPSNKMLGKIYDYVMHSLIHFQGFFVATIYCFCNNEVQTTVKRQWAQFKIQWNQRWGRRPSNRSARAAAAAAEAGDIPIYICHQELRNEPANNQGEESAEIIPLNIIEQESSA
T1 sequence (looked up) 2: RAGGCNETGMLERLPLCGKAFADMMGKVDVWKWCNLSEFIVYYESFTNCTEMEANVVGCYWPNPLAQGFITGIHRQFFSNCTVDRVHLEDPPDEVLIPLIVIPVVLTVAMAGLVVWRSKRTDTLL

T2: rat amylin 3(a) receptor (rat calcitonin(a) receptor + rat RAMP3) (rat, UniProt P32214 25-516; Q9JJ73 23-147)
T2 sequence (looked up) 1: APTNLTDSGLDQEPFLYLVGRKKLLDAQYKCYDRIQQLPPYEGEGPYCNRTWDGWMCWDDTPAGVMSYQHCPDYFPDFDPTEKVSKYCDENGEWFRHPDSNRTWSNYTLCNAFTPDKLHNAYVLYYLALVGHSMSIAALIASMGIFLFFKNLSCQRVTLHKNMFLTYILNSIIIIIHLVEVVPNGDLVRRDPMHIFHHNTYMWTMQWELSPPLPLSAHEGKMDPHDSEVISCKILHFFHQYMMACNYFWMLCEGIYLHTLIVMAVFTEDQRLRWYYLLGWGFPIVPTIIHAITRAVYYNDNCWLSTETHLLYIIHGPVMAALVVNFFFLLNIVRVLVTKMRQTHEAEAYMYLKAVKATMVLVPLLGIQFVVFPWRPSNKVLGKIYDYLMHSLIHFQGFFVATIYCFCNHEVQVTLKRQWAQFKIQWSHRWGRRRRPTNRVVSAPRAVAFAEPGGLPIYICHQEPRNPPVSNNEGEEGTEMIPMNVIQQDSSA
T2 sequence (looked up) 2: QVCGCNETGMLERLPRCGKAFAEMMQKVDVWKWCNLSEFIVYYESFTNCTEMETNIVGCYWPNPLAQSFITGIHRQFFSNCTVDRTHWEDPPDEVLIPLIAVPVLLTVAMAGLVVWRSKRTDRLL

T3: human calcitonin (a) receptor (human, UniProt P30988 25-474)
T3 sequence (looked up): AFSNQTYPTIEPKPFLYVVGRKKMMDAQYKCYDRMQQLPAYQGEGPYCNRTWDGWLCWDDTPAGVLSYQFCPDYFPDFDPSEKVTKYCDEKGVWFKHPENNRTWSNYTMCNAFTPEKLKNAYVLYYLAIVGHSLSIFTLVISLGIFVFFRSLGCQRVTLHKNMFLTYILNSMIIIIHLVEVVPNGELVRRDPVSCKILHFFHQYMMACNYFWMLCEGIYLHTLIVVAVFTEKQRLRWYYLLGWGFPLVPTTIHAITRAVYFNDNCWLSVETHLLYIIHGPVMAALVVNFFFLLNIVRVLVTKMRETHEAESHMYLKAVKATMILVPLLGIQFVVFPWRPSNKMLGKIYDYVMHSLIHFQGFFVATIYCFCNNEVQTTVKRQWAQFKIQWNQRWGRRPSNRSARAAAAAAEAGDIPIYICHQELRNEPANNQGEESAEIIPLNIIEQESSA

T4: rat calcitonin (a) receptor (rat, UniProt P32214 25-516)
T4 sequence (looked up): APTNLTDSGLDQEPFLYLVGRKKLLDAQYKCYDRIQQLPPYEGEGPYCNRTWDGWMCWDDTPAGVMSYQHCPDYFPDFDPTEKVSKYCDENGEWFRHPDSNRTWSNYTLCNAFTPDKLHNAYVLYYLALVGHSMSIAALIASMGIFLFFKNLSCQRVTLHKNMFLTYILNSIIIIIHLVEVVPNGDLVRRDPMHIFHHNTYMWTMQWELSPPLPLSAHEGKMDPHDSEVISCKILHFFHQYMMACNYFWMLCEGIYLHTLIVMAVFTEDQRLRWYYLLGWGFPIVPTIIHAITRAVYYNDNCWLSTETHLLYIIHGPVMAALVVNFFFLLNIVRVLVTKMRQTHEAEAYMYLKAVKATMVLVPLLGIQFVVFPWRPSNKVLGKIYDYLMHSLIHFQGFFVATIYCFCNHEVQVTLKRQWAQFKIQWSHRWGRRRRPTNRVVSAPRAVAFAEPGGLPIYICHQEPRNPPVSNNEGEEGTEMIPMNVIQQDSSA


How the values were obtained:
Assay in all cases: cell-based or functional assay
[1] = target: T1, human amylin 3(a) receptor (human …)
[2] = target: T2, rat amylin 3(a) receptor (rat …)
[3] = target: T3, human calcitonin (a) receptor
[4] = target: T4, rat calcitonin (a) receptor

Amylin receptor human EC50 [1]	Amylin receptor rat EC50 [2]	CTa receptor human EC50 [3]	CTa receptor rat EC50 [4]	Binder
0.0832 nM	0.132 nM	0.642 nM	1.89 nM	{19‑carboxyheptadecanoyl-γGlu-AEEA-AEEA}-[dR][dR]KCNTATCATQRLAEFLHRSSNNFGPILPPTNVGSNTY-NH2 (disulfide 4-9; reading uncertain; also: printed as N-alpha-[2-(2-{2-[2-(2-{2-[(S)-4-Carboxy-4-(19-carboxyheptadecanoylamino)butyrylamino]ethoxy}ethoxy)acetylamino]ethoxy}ethoxy)acetyl]-D-Arg-D-Arg-[Glu14,His17,Arg18]-pramlintide)
0.149 nM	0.233 nM	1.11 nM	4.48 nM	{19‑carboxyheptadecanoyl-γGlu-AEEA-AEEA}-[dR][dR]KCNTATCATQRLAEFLHRSSANFGPILPPTNVGSSTY-NH2 (disulfide 4-9; reading uncertain; also: printed as N-alpha-[2-(2-{2-[2-(2-{2-[(S)-4-Carboxy-4-(19-carboxyheptadecanoylamino)butyrylamino]ethoxy}ethoxy)acetylamino]ethoxy}ethoxy)acetyl]-D-Arg-D-Arg-[Glu14,His17,Arg18,Ala21,Ser35]-pramlintide)
0.13 nM	0.476 nM	0.214 nM	1.39 nM	{C20 diacid-γGlu}-EKCNTATCATQRLAEFLHHSSNNFGPILPPTNVGSNTY-NH2 (disulfide 3-8; not fully specified; printed as N-alpha-[(S)-4-Carboxy-4-(19-carboxynonadecanoylamino)butyryl]-Glu-[Glu14,His17]-pramlintide) [N-alpha-[(S)-4-Carboxy-4-(19-carboxynonadecanoylamino)butyryl]-Glu-[Glu14,His17]-pramlintide]
0.603 nM	0.401 nM	0.543 nM	4.87 nM	{C20 diacid-γGlu}-HHHCHTATCATQRLAEFLHHSSNNFGPILPPTNVGSHTY-NH2 (disulfide 4-9; SMILES CC[C@H](C)[C@H](NC(=O)[C@@H]1CCCN1C(=O)CNC(=O)[C@H](Cc1ccccc1)NC(=O)[C@H](CC(N)=O)NC(=O)[C@H](CC(N)=O)NC(=O)[C@H](CO)NC(=O)[C@H](CO)NC(=O)[C@H](Cc1c[nH]cn1)NC(=O)[C@H](Cc1c[nH]cn1)NC(=O)[C@H](CC(C)C)NC(=O)[C@H](Cc1ccccc1)NC(=O)[C@H](CCC(=O)O)NC(=O)[C@H](C)NC(=O)[C@H](CC(C)C)NC(=O)[C@H](CCCNC(=N)N)NC(=O)[C@H](CCC(N)=O)NC(=O)[C@@H](NC(=O)[C@H](C)NC(=O)[C@@H]1CSSC[C@H](NC(=O)[C@H](Cc2c[nH]cn2)NC(=O)[C@H](Cc2c[nH]cn2)NC(=O)[C@H](Cc2c[nH]cn2)NC(=O)CC[C@H](NC(=O)CCCCCCCCCCCCCCCCCCC(=O)O)C(=O)O)C(=O)N[C@@H](Cc2c[nH]cn2)C(=O)N[C@@H]([C@@H](C)O)C(=O)N[C@@H](C)C(=O)N[C@@H]([C@@H](C)O)C(=O)N1)[C@@H](C)O)C(=O)N[C@@H](CC(C)C)C(=O)N1CCC[C@H]1C(=O)N1CCC[C@H]1C(=O)N[C@H](C(=O)N[C@@H](CC(N)=O)C(=O)N[C@H](C(=O)NCC(=O)N[C@@H](CO)C(=O)N[C@@H](Cc1c[nH]cn1)C(=O)N[C@H](C(=O)N[C@@H](Cc1ccc(O)cc1)C(N)=O)[C@@H](C)O)C(C)C)[C@@H](C)O)
0.164 nM	0.2 nM	0.155 nM	1.31 nM	{C20 diacid-γGlu}-HHHCNTATCATQRLAEFLHHSSNNFGPILPPTNVGSHTY-NH2 (disulfide 4-9; SMILES CC[C@H](C)[C@H](NC(=O)[C@@H]1CCCN1C(=O)CNC(=O)[C@H](Cc1ccccc1)NC(=O)[C@H](CC(N)=O)NC(=O)[C@H](CC(N)=O)NC(=O)[C@H](CO)NC(=O)[C@H](CO)NC(=O)[C@H](Cc1c[nH]cn1)NC(=O)[C@H](Cc1c[nH]cn1)NC(=O)[C@H](CC(C)C)NC(=O)[C@H](Cc1ccccc1)NC(=O)[C@H](CCC(=O)O)NC(=O)[C@H](C)NC(=O)[C@H](CC(C)C)NC(=O)[C@H](CCCNC(=N)N)NC(=O)[C@H](CCC(N)=O)NC(=O)[C@@H](NC(=O)[C@H](C)NC(=O)[C@@H]1CSSC[C@H](NC(=O)[C@H](Cc2c[nH]cn2)NC(=O)[C@H](Cc2c[nH]cn2)NC(=O)[C@H](Cc2c[nH]cn2)NC(=O)CC[C@H](NC(=O)CCCCCCCCCCCCCCCCCCC(=O)O)C(=O)O)C(=O)N[C@@H](CC(N)=O)C(=O)N[C@@H]([C@@H](C)O)C(=O)N[C@@H](C)C(=O)N[C@@H]([C@@H](C)O)C(=O)N1)[C@@H](C)O)C(=O)N[C@@H](CC(C)C)C(=O)N1CCC[C@H]1C(=O)N1CCC[C@H]1C(=O)N[C@H](C(=O)N[C@@H](CC(N)=O)C(=O)N[C@H](C(=O)NCC(=O)N[C@@H](CO)C(=O)N[C@@H](Cc1c[nH]cn1)C(=O)N[C@H](C(=O)N[C@@H](Cc1ccc(O)cc1)C(N)=O)[C@@H](C)O)C(C)C)[C@@H](C)O)
	0.348 nM		0.287 nM	KCNTATCATQRLAEFLRHSSNNFGPILPPTNVGSNTP (N-alpha acylated: C20diacid-gGlu; disulfide Cys2-Cys7; C-terminal amide) [N-alpha-[(S)-4-Carboxy-4-(19-carboxynonadecanoylamino)butyryl]-[Glu14,Arg17,Pro37]-pramlintide]
0.121 nM	0.188 nM	0.107 nM	0.539 nM	{C20 diacid-γGlu}-KCNTATCATQRLAEFLHHSSNNFGPILPPTNVGSNTY-NH2 (disulfide 2-7; SMILES CC[C@H](C)[C@H](NC(=O)[C@@H]1CCCN1C(=O)CNC(=O)[C@H](Cc1ccccc1)NC(=O)[C@H](CC(N)=O)NC(=O)[C@H](CC(N)=O)NC(=O)[C@H](CO)NC(=O)[C@H](CO)NC(=O)[C@H](Cc1c[nH]cn1)NC(=O)[C@H](Cc1c[nH]cn1)NC(=O)[C@H](CC(C)C)NC(=O)[C@H](Cc1ccccc1)NC(=O)[C@H](CCC(=O)O)NC(=O)[C@H](C)NC(=O)[C@H](CC(C)C)NC(=O)[C@H](CCCNC(=N)N)NC(=O)[C@H](CCC(N)=O)NC(=O)[C@@H](NC(=O)[C@H](C)NC(=O)[C@@H]1CSSC[C@H](NC(=O)[C@H](CCCCN)NC(=O)CC[C@H](NC(=O)CCCCCCCCCCCCCCCCCCC(=O)O)C(=O)O)C(=O)N[C@@H](CC(N)=O)C(=O)N[C@@H]([C@@H](C)O)C(=O)N[C@@H](C)C(=O)N[C@@H]([C@@H](C)O)C(=O)N1)[C@@H](C)O)C(=O)N[C@@H](CC(C)C)C(=O)N1CCC[C@H]1C(=O)N1CCC[C@H]1C(=O)N[C@H](C(=O)N[C@@H](CC(N)=O)C(=O)N[C@H](C(=O)NCC(=O)N[C@@H](CO)C(=O)N[C@@H](CC(N)=O)C(=O)N[C@H](C(=O)N[C@@H](Cc1ccc(O)cc1)C(N)=O)[C@@H](C)O)C(C)C)[C@@H](C)O) [N-alpha-[(S)-4-Carboxy-4-(19-carboxynonadecanoylamino)butyryl]-[Glu14,His17]-pramlintide]
